Experiments:
[1] = target: recombinant Fel d 1 produced with a myc-myc-hexahistidine tag (rFel d 1.mmh) (cat, UniProt P30440-1 18-109; P30438 23-92); test: SPR; 25°C
rFel d 1.mFc = test: SPR; 25°C; dimeric

recombinant Fel d 1 produced with a myc-myc-hexahistidine tag (rFel d 1.mmh), sequence (P30440 other isoform, or with tags, fused parts or gaps): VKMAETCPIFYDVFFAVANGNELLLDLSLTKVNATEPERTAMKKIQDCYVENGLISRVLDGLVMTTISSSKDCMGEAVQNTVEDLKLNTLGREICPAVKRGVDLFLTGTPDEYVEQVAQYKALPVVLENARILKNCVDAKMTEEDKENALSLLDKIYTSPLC

B1: REGN1909 (antibody, V domains shown)
VH: EVQLVESGGGLVQPGGSLRLSCAASGFTFSSYAMSWVRQAPGKGLEWVSAISGRGYNADYADSVKGRFTISRDNSKNTLYLQMNSLRAEDTAVYYCAKLEYFDYWGQGTLVTVSS
VL: DIQMTQSPSTLSASVGDRVTITCRASQSISSWLAWYQQKPGKAPKLLIYKASSLESGVPSRFSGSGSGTDFTLTISSLRPEDFATYYCQQYNSYPLTFGGGTKVEIK
Kd [1]: 0.912 nM
Kd (rFel d 1.mFc): 0.0978 nM

Source: article PMC5897525 (2018)
